B1: Mycobacterium tuberculosis SufS (Rv1464) (enzyme)
chain: GMTASVNSLDLAAIRADFPILKRIMRGGNPLAYLDSGATSQRPLQVLDAEREFLTASNGAVHRGAHQLMEEATDAYEQGRADIALFVGADTDELVFTKNATEALNLVSYVLGDSRFERAVGPGDVIVTTELEHHANLIPWQELARRTGATLRWYGVTDDGRIDLDSLYLDDRVKVVAFTHHSNVTGVLTPVSELVSRAHQSGALTVLDACQSVPHQPVDLHELGVDFAAFSGHKMLGPNGIGVLYGRRELLAQMPPFLTGGSMIETVTMEGATYAPAPQRFEAGTPMTSQVVGLAAAARYLGAIGMAAVEAHERELVAAAIEGLSGIDGVRILGPTSMRDRGSPVAFVVEGVHAHDVGQVLDDGGVAVRVGHHCALPLHRRFGLAATARASFAVYNTADEVDRLVAGVRRSRHFFGRA
B2: Mycobacterium tuberculosis SufU (Rv1465), tag state not told (natural protein)
chain: GSHMVTLRLEQIYQDVILDHYKHPQHRGLREPFGAQVYHVNPICGDEVTLRVALSEDGTRVTDVSYDGQGCSISQAATSVLTEQVIGQRVPRALNIVDAFTEMVSSRGTVPGDEDVLGDGVAFAGVAKYPARVKCALLGWMAFKDALAQASEAFEEVTDERNQRTG

How the values were obtained:
SEC-MALS = molecular target: the molecule itself; assay: SEC-MALS
[1] = molecular target: B1; assay: crystal structure; conditions: both partners purified

Binder | stoichiometry N (SEC-MALS) | binding result [1]
B1 | 2 | 
B2 |  | binds

Reference: publication PMC10216065 (Biomolecules, 2023)
